By stoichiometry N is commonly meant the number of molecules, sites or subunits per partner or assembly.

Two substances from paper PMC11218372 can be followed below.

Experiment [1] deals with CA7-PabCA, carbonic anhydrase from Pyrococcus abyssi (Py. abyssi). In words: SDS-PAGE; cell lysates of E. coli overexpressing the CA, NuPAGE 4-12% Bis-Tris gel in MES buffer; CA7 expressed without additional Zn, CA8 with 0.5 mM ZnSO4.
Experiment [2] has the same target. In words: SDS-PAGE; SEC fractions of the purified CA (Cobalt His-Pur, Superdex 75), NuPAGE 4-12% Bis-Tris gel.
Experiment [3] concerns the target CA8-PhoCA, carbonic anhydrase from Pyrococcus horikoshii (Py. horikoshii). Nature of the experiment: SDS-PAGE; cell lysates of E. coli overexpressing the CA, NuPAGE 4-12% Bis-Tris gel in MES buffer; CA7 expressed without additional Zn, CA8 with 0.5 mM ZnSO4.
Experiment [4] has the same target. In words: SDS-PAGE; SEC fractions of the purified CA (Cobalt His-Pur, Superdex 75), NuPAGE 4-12% Bis-Tris gel.

Take “CA7-PabCA, carbonic anhydrase from Pyrococcus abyssi (enzyme)”: the stoichiometry N in experiment [1] and in experiment [2] was 3 each time.
As for “CA8-PhoCA, carbonic anhydrase from Pyrococcus horikoshii (enzyme)”, the stoichiometry N in experiment [3] and in experiment [4] was 3 each time.
